Measurements taken from paper doi:10.1101/2021.12.15.472832.

Target: mouse PARP13 ZnF5-WWE1-WWE2 (residues 476 to 673) (mouse) (UniProt Q3UPF5)
Experiment: SEC-MALS

## mouse PARP13 ZnF5-WWE1-WWE2 (residues 476 to 673) (from UniProt Q3UPF5 476-673) (domain or fragment)
  percent of the scattering mass in the dimer peak: 4%
  stoichiometry N: 2
